Source: patent US20110002929A1

Target: human RANK-L (human) (UniProt O14788)
Assay: cell-based or functional assay

human RANK-L (human), sequence (O14788 140-317 limits assumed): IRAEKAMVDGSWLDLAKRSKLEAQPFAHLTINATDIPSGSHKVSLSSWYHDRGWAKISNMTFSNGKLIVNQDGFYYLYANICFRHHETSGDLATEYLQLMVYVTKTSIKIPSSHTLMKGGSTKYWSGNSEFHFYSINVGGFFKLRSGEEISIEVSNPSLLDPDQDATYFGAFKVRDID

**Q.** With “osteoprotegerin (from UniProt O00300 22-401) (receptor)” as the substance, how does the RANK-L induced NF-kappaB activation (luciferase reporter, HEK293T cells), IC50 read?
**A.** Its RANK-L induced NF-kappaB activation (luciferase reporter, HEK293T cells), IC50 is 6.03 nM.
